Measured values as given in paper PMC11565809 (bioRxiv, 2024).

Target: human factor H (human, UniProt P08603 19-1231)
Assay: ELISA

human factor H, sequence (P08603 19-1231): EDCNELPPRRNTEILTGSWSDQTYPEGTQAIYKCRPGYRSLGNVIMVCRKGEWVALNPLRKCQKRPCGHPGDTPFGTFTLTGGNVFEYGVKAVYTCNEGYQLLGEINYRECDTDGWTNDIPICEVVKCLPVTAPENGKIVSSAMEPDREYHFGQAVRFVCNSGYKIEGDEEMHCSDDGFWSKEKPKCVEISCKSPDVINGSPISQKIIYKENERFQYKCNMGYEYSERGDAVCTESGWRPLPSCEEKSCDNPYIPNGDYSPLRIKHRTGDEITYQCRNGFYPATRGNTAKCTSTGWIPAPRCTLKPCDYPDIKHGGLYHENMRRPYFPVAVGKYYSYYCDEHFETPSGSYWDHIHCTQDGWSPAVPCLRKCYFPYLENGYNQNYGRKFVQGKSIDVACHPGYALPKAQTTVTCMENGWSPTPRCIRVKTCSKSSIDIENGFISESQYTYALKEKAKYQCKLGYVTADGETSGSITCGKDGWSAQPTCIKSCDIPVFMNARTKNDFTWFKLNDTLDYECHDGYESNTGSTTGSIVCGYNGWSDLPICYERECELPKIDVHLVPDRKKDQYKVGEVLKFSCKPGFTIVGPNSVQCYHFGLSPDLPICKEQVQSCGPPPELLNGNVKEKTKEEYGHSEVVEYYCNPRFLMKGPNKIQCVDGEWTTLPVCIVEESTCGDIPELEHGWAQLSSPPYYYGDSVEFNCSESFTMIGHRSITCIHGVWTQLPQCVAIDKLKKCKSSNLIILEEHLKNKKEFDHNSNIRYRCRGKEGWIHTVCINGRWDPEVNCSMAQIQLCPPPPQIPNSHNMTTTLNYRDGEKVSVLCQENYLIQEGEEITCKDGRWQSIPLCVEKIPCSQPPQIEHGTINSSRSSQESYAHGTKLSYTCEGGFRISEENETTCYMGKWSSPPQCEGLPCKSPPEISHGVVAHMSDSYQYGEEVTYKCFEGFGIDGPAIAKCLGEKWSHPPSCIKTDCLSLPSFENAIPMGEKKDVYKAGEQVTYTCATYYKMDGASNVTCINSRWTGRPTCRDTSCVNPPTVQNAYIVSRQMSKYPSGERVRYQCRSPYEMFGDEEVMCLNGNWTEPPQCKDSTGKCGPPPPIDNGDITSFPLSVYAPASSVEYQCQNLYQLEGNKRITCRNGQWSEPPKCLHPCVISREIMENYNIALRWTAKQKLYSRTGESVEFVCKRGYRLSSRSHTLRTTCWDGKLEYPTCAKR

B1: histidine-tagged CspZ (natural protein, B. burgdorferi)
chain: RLNQRNINELKIFVEKAKYYSIKLDAIYNECTGAYNDIMTYSEGTFSDQSKVNQAISIFKKDNKIVNKFKELEKIIEEYKPMFLSKLIDDFAIELDQAVDNDVSNARHVADSYKKLRKSVVLAYIESFDVISSKFVDSKFVEASKKFVNKAKEFVEENDLIALECIVKTIGDMVNDREINSRSRYNNFYKKEADFLGAAVELEGAYKAIKQTLL
- binding result: binds
